Data taken from patent publication US20260209316A1 (US Dept. of Health and Human Services, published 2026).
Where two headings read alike, the source gives them in different places.

B1: antibody 503S (antibody, V domains shown)
VH: QVQLVQSGAEVKKPGASVRVSCKASGYTFTSYYMHWVRQAPGQGLEWMGQINPSGGTTRYERKFQGRITVTRDTSTSTVYLELSSLRSEDTASYFCACLRDKVTYYDLWSGVDSVWGQGTLVTVSS
VL: DIQMTQSPSSLSASVGDRVTITCRASQDISTWLAWYQQKPEKAPKSLIYAASTLETGVPSRFSGSGSGTDFTLTISSLQPEDFATYYCEQYNGFPRTFGQGTKLDIK
B2: antibody 541S (antibody, V domains shown)
VH: QVQLVQSGAEVKKPGASVKVSCKASGYTFTNYAITWVRQAPGQGLEWMGWISAFNGQINYAQKFQGRVAMTTDTSTSTAYMELRSLRSDDTAVYYCARAPPMWFSGAKFDYWGQGTLVTVSS
VL: QSVLTQPPSVSGTPGQRVTISCSGSSSNIGSNTVNWYQQLPGTAPKLLIYSNDQRPSGVPDRFSGSKSGTSASLAISGLRSEDEADYYCAAWDETLRRVFGGGTRLTVL
B3: antibody 291S (antibody, V domains shown)
VH: QVQLQESGPGLVKPSQTLSLTCTVSGGSFSSGFYWSWIRQRPGKGLEWVGYTYYSGSTYYNPSLQSRVTISVDTSKNQFSLNLSSVTAADTAVYHCARADYGGLFDYWGQGILVTVSS
VL: QSVLTQPSSLSASPGASASLTCTLRSGINVGTYRIFWYQQKPGSPPQFLLRYNSDSDKQQGSGVPSRFSGSKDASANAGILLISGLQSEDEADYYCMIWHTSAWVFGGGTKLTVL
B4: antibody 573S (antibody, V domains shown)
VH: EVQLVESGGGLVKPGGSLRLSCAASGFTFSSYTMNWVRQAPGKGLEWVSCIRSSSSDKYYADSVKGRFTISRDNTKNSLYLQMNSLRADDTAVYYCARDLGGANNRYYFDYGMDVWGQGTTVTVSS
VL: EIVMTQSPATLSVSPGGRATLSCRASQSVYTNLAWYQQKPGQAPRLLIYDASTRATGIPARFSGSGSGTEFTLTISSLQCEDFAVYYCQHYNNWPLYTFGQGTKLEIK
B5: antibody 380L (antibody, V domains shown)
VH: EVQLVESGGGLVQPGGSLTLSCAASGFTFGDYVMHWVRQVPGRGLEWLSAVSWSGYTTYSADSVKGRFTISRDNAKNSLYLQMSRLGTADTGLYYCVTLIGAIGIRDSFDAWGRGVLVTVSS
VL: QSVLTQPPSMSGAPGQRVTVSCTGSSSNIGAGNYVQWYQQLPGTAPKVLIYQTDKRPSGISDRFSGSKSGTSASLTISGLQSEDEADYYCQVYDSSLNGWVFGGGTRLTVL
notes: also called 380L mAb; mAb 380L
B6: antibody 354S (antibody, V domains shown)
VH: QVQLVQSGAEVKKPGASVKVSCKASGYSFASYYIHWVRQAPGQGLEWMGIINPSGGTTSYAQKFQGRVTMTRDTSTSTVYMELSSLGSEDTAVYYCARIVDRVTIYLNGVDNYWGQGTLVTVSS
VL: EIVMTQSPATLSVSPGERVTLSCRASQSVSSNLAWFQQTPGQAPRLLIYGASTRASGVPARFSGSGSGTEFTLTISSLQSEDFAVYYCLQYNNWPPGWKYGFGQGTKLEIK
B7: antibody 13C6 (antibody, V domains shown)
VH: QLTLKESGPGILKPSQTLSLTCSLSGFSLSTSGVGVGWFRQPSGKGLEWLALIWWDDDKYYNPSLKSQLSISKDFSRNQVFLKISNVDIADTATYYCARRDPFGYDNAMGYWGQGTSVTVSS
VL: DIVMTQSQKFMSTSVGDRVSLTCKASQNVGTAVAWYQQKPGQSPKLLIYSASNRYTGVPDRFTGSGSGTDFTLTISNMQSEDLADYFCQQYSSYPLTFGAGTKLELR
B8: antibody 523S (antibody, V domains shown)
VH: QVQLVQSGAELKKPGASVKVSCKASGYTFSDHYVHWVRQAPGQGLEWMGRINPNSGGTNYAQRFLGRVTMTRDASISTAYLDLSSLRSDDTAVYYCARSSSSWSGHYYYYMDVWGKGTTVTVSS
VL: QSVLTQPPSVSAAPGQRVTISCSGSTSNIASNFVSWYQQLPGTAPKLLIYDNHKRPSGIPDRFSGSKSGTSATLGITGLQTGDEADYYCGTWDSSLSAGVFGGGTKVTVLG
B9: antibody 233S (antibody, V domains shown)
VH: EVQLVESGGGLGQPGGSLRLSCAASGFKFKIFGMNWVRQAPGKGLEWVSYISSRSSIIYYADSVKGRFTISRDDATNSLFLQMNSLRDEDTAMYYCVRDYNLIDFVWGSLFDYWGQGILVTVSS
VL: AIRMTQSPSSLSASTGDSVTITCRASQNIASYLAWYQQIPGKAPKLLIYVASTLQSGVPSRFSGSGSGTDFTLTISSLQSEDFATYYCQQYYRYPPTFGQGTKVEIK
B10: antibody 294S (antibody, V domains shown)
VH: QVQLQESGPGLVKPSQTLSLTCTVSGGSISSGGYHWSWIRQHPGKGLEWIGNIYYNGRTYYNPSLKSRVTISVDTSENEFSLKLSSVTAADTAVYYCARDRRRPRIGHDYGMDVWGQGTKVIVSS
VL: DIQMTQSPSSLSASVGDRVTISCRASQSISNFLNWYQQKPGQAPKLLIYTASNLQSGVPSRFSGSGSGTDFTLTISSLQPEDFATYYCQQIYNTGMYSFGQGTKLEIKR
B11: antibody 241S (antibody, V domains shown)
VH: QVQLVQSGSELKKPGASVKVSCKASGYTFTSYTVNWVRQAPGQGLEWMGWINTNTGNPTYAQGFTGRFVFSSDTSVSTAYLQISDLKAEDTAMYYCARHVAYDLWSGHTVTFDHWGQGTLVTVSS
VL: QSALTQPPSASGSPGQSVTISCTGTSSDVGAYNYVSWYQQHPGKAPKLIIYEVTKRPSGVPDRFSGSKSGNTASLTVSGLQAEDEADYYCSSKAGGKTYVFGTGTKVTVL
B12: antibody 545S (antibody, V domains shown)
VH: QVQLQESGPGLVKPSQTLSLTCTVSGGSISRAGSYWSWIRQHPGKGLEWIGYISYSGSTYYNPSLESRVTMSLDTSKSQFSLKLSSVTAADTAVYYCAREDRSGFYGLDVWGQGTTVTVSS
VL: QSVLTQPSSLSASPGATASLTCTLRSGINVDTYRIYWYQQKPGSPPQYLLRYKSDSDKHQGSGVPSRFSGSKDASANAGILLISGLQSADEADYYCMIWHSGAWVFGGGTKLTVQG
notes: also called 545S mAb

What was measured:
[1] = target: T1, mucin domain-deleted Sudan GP (GPdMuc) (Sudan virus (SUDV), UniProt Q7T9D9 33-632); assay: ELISA on coated GP
T1 construct: also called Sudan GPdMuc; GP(S)dMuc

[2] = target: T1, mucin domain-deleted Sudan GP (GPdMuc); assay: BLI competition on Sudan GPdMuc (lower table); competitor 16F6
[3] = target: T1, mucin domain-deleted Sudan GP (GPdMuc); assay: BLI competition on Sudan GPdMuc (lower table); competitor 316L
[4] = target: T1, mucin domain-deleted Sudan GP (GPdMuc); assay: BLI competition on Sudan GPdMuc (lower table); competitor 15H10
[5] = target: T1, mucin domain-deleted Sudan GP (GPdMuc); assay: BLI competition on Sudan GPdMuc (lower table); competitor mAb166
[6] = target: T1, mucin domain-deleted Sudan GP (GPdMuc); assay: BLI competition on Sudan GPdMuc (upper table); competitor 16F6
[7] = target: T1, mucin domain-deleted Sudan GP (GPdMuc); assay: BLI competition on Sudan GPdMuc (upper table); competitor 316L
[8] = target: T1, mucin domain-deleted Sudan GP (GPdMuc); assay: BLI competition on Sudan GPdMuc (upper table); competitor 15H10
[9] = target: T1, mucin domain-deleted Sudan GP (GPdMuc); assay: BLI competition on Sudan GPdMuc (upper table); competitor mAb166
[10] = target: T1, mucin domain-deleted Sudan GP (GPdMuc); assay: ELISA on coated GP; remark: listed apart in the source
[11] = target: T1, mucin domain-deleted Sudan GP (GPdMuc); assay: ELISA on coated GP; remark: listed apart in the source
[12] = target: T2, mucin domain-deleted Zaire GP (GPdMuc) (Ebola (Zaire) virus (EBOV), UniProt Q05320 33-632); assay: ELISA on coated GP
T2 construct: also called Zaire GPdMuc; GP(Z)dMuc

[13] = target: T2, mucin domain-deleted Zaire GP (GPdMuc); assay: BLI competition on Zaire GPdMuc (upper table); competitor 13C6
[14] = target: T2, mucin domain-deleted Zaire GP (GPdMuc); assay: BLI competition on Zaire GPdMuc (upper table); competitor 316L
[15] = target: T2, mucin domain-deleted Zaire GP (GPdMuc); assay: BLI competition on Zaire GPdMuc (upper table); competitor KZ52
[16] = target: T1, mucin domain-deleted Sudan GP (GPdMuc); assay: BLI competition on Sudan GPdMuc (lower table); competitor 15H10; remark: listed apart in the source
[17] = target: T2, mucin domain-deleted Zaire GP (GPdMuc); assay: BLI competition on Zaire GPdMuc (upper table); competitor 15H10
[18] = target: T1, mucin domain-deleted Sudan GP (GPdMuc); assay: BLI competition on Sudan GPdMuc (lower table); competitor mAb166; remark: listed apart in the source
[19] = target: T2, mucin domain-deleted Zaire GP (GPdMuc); assay: BLI competition on Zaire GPdMuc (upper table); competitor mAb114
[20] = target: T3, mucin domain-deleted Zaire GP (GPdMuc) (Ebola (Zaire) virus (EBOV), UniProt Q05320 33-632); assay: BLI competition on Zaire GPdMuc (upper table); competitor 316L
[21] = target: T3, mucin domain-deleted Zaire GP (GPdMuc); assay: BLI competition on Zaire GPdMuc (upper table); competitor 380L
[22] = target: T3, mucin domain-deleted Zaire GP (GPdMuc); assay: BLI competition on Zaire GPdMuc (upper table); competitor KZ52
[23] = target: T3, mucin domain-deleted Zaire GP (GPdMuc); assay: BLI competition on Zaire GPdMuc (upper table); competitor 15H10
[24] = target: T3, mucin domain-deleted Zaire GP (GPdMuc); assay: BLI competition on Zaire GPdMuc (upper table); competitor mAb114

| Binder | EC50 [1] [µg/mL] | % inhibition of binding [2] [%] | % inhibition of binding [3] [%] | % inhibition of binding [4] [%] | % inhibition of binding [5] [%] | further results |
| --- | --- | --- | --- | --- | --- | --- |
| B1 | 0.499 | 24.9 | 23.3 | 27.8 | 20.7 |  |
| B2 | 0.23 |  |  |  |  | % inhibition of binding [6]: 72.1%; % inhibition of binding [7]: 16.2%; % inhibition of binding [8]: 18.6%; % inhibition of binding [9]: 15.7% |
| B3 |  |  |  |  |  | EC50 [10]: 0.0519 µg/mL |
| B4 | 0.101 |  |  |  |  | % inhibition of binding [6]: 76.2%; % inhibition of binding [7]: 6.38%; % inhibition of binding [8]: 15.8%; % inhibition of binding [9]: 8.08% |
| B5 |  |  |  |  |  | EC50 [11]: 0.0238 µg/mL; EC50 [12]: 0.012 µg/mL; % inhibition of binding [13]: 97%; % inhibition of binding [14]: 93%; % inhibition of binding [15]: 13%; % inhibition of binding [16]: 3.6%; % inhibition of binding [17]: 24%; % inhibition of binding [18]: 81.9%; % inhibition of binding [19]: 100% |
| B6 | 0.0404 | 18.7 | 17.9 | 18.9 | 16.2 |  |
| B7 |  |  |  |  |  | % inhibition of binding [20]: 95%; % inhibition of binding [21]: 95%; % inhibition of binding [22]: 16%; % inhibition of binding [23]: 1%; % inhibition of binding [24]: 97% |
| B8 | 0.378 |  |  |  |  | % inhibition of binding [6]: 90.8%; % inhibition of binding [7]: 9.35%; % inhibition of binding [8]: 17.4%; % inhibition of binding [9]: 5.74% |
| B9 | 0.195 | 22.9 | 12.5 | 29.6 | 14.4 |  |
| B10 | 0.0266 | 13.3 | 8.76 | 15.7 | 9.71 |  |
| B11 | 0.331 | 28.2 | 10.3 | 38.3 | 10.1 |  |
| B12 |  |  |  |  |  | EC50 [10]: 0.0233 µg/mL |
